B1: LINE1-full (parent)
chain: UACGUAGGUGGUUUUCCCCUGAUAGUGCUAAGGGGGCCUGGAAGUUUGGACUGGGCAGAGCUCAACACAGCGUGGCAAAGUGGCUGUGGCUAGACUGCCUCUCUGGAUUCCUCGUCACUCAGCAGGGCAUCUCUGAGAGAAAUGCC

Variants of: B1
Test: self-cleavage, relative activity (ratio to wild type); higher = more cleavage; in vitro, sequencing; the parent is a self-cleaving ribozyme
With A57U A140G the self-cleavage was 0.11.
A57U A140U gave a self-cleavage of 0.2.
Work on U14C C110U yielded a self-cleavage of 1.39.
For A2G U112C, the self-cleavage was 0.87.
Work on U26G G27A yielded a self-cleavage of 1.01.
Work on A65G A129C yielded a self-cleavage of 0.02.
Work on G10A A22G yielded a self-cleavage of 1.09.
Work on A43U A140G yielded a self-cleavage of 1.02.
For A65G G97A, the self-cleavage was 0.03.
G49A G82U showed a self-cleavage of 1.49.
With U85C U134G the self-cleavage was 0.14.
A6U A30G showed a self-cleavage of 1.01.
Work on U23A C120A yielded a self-cleavage of 0.82.
In the case of U1C C116A, the self-cleavage is reported as 1.42.
In the case of A22G A64G, the self-cleavage is reported as 0.34.
A94G C145U gave a self-cleavage of 0.17.
For A24G U73A, the self-cleavage was 1.2.
U108C U134G gave a self-cleavage of 2.43.
In the case of U96A G127A, the self-cleavage is reported as 0.06.
With A57G A124G the self-cleavage was 0.41.
C118G showed a self-cleavage of 1.27.
U12C G33U gave a self-cleavage of 1.36.
U13C G126U showed a self-cleavage of 1.2.
For U9C G48C, the self-cleavage was 1.09.
With A59G G88A the self-cleavage was 0.06.
C63U U102C showed a self-cleavage of 0.28.
For A65U U115C, the self-cleavage was 0.26.
With U23A U130A the self-cleavage was 1.52.
Variant C56A U96C has a self-cleavage of 0.05.
U29C C116U gave a self-cleavage of 0.85.
A42G A77U showed a self-cleavage of 1.02.
Work on G34A C37U yielded a self-cleavage of 1.1.
A31U A67G showed a self-cleavage of 0.41.
With G32A G82A the self-cleavage was 2.01.
A6U U81C gave a self-cleavage of 1.06.
For U46C U115A, the self-cleavage was 1.58.
A24U U96C showed a self-cleavage of 0.07.
G127A G139C showed a self-cleavage of 1.41.
With A64G U130C the self-cleavage was 0.33.
For A64G U130A, the self-cleavage was 0.28.
Variant A79G G139U has a self-cleavage of 1.19.
For A30C G35A, the self-cleavage was 1.51.
A67G C111U showed a self-cleavage of 0.54.
Variant U45C A121U has a self-cleavage of 1.13.
Work on A2G C71U yielded a self-cleavage of 0.7.
Variant A65G U119C has a self-cleavage of 0.04.
Variant U29C A129G has a self-cleavage of 2.12.
In the case of G105A G114C, the self-cleavage is reported as 1.42.
With U20C A142U the self-cleavage was 2.2.
Work on U39A G97A yielded a self-cleavage of 0.12.
Work on A6G U115C yielded a self-cleavage of 0.7.
Variant A57U C98G has a self-cleavage of 0.06.
For C113U U143C, the self-cleavage was 1.05.
Work on U14C G58C yielded a self-cleavage of 0.08.
Variant G32U U134C has a self-cleavage of 0.74.
Variant U14G U96C has a self-cleavage of 0.
G60A A121U gave a self-cleavage of 0.1.
A6U C71U showed a self-cleavage of 1.15.
Variant U47C A136C has a self-cleavage of 1.09.
For U12A U134C, the self-cleavage was 0.73.
Work on A2G U62A yielded a self-cleavage of 0.09.
For A92U A124G, the self-cleavage was 0.5.
U52C U81G gave a self-cleavage of 1.31.
For C38A U108A, the self-cleavage was 1.01.
Work on G10C C146U yielded a self-cleavage of 1.91.
In the case of G33U G144A, the self-cleavage is reported as 1.21.
A43U U134C gave a self-cleavage of 1.26.
With C38A G55C the self-cleavage was 0.07.
Work on U9A U102C yielded a self-cleavage of 1.03.
U5G A64C gave a self-cleavage of 0.19.
A57U C66G gave a self-cleavage of 0.05.
Work on G41A U143C yielded a self-cleavage of 0.95.
With G86A U115A the self-cleavage was 0.01.
For C66U G75A, the self-cleavage was 0.04.
U46C U73G showed a self-cleavage of 1.65.
A6G U134A showed a self-cleavage of 0.52.
In the case of U102A A121G, the self-cleavage is reported as 1.64.
With G54A U100C the self-cleavage was 0.31.
For U45G U47A, the self-cleavage was 1.19.
With U52A G82U the self-cleavage was 1.26.
With A6C A129U the self-cleavage was 0.77.
C84U A121G showed a self-cleavage of 0.2.
For U12C A22G, the self-cleavage was 1.64.
Work on U15C C133A yielded a self-cleavage of 1.27.
Work on A42G G114A yielded a self-cleavage of 1.48.
Variant A2U U9A has a self-cleavage of 0.86.
For U14G C66U, the self-cleavage was 0.06.
Variant U46A A94G has a self-cleavage of 0.16.
With G80U A141G the self-cleavage was 1.1.
Variant U15C G74A has a self-cleavage of 1.4.
U52A G80C showed a self-cleavage of 0.98.
In the case of A65G A107G, the self-cleavage is reported as 0.03.
U45G C120U gave a self-cleavage of 1.49.
Variant A43U U108C has a self-cleavage of 1.08.
Variant U73A U119C has a self-cleavage of 1.86.
For U73A U119A, the self-cleavage was 1.59.
Work on A129U A138U yielded a self-cleavage of 1.47.
Work on A129U A136U yielded a self-cleavage of 1.42.
With U100C A140G the self-cleavage was 1.79.
Work on A57G G60C yielded a self-cleavage of 0.11.
Variant A94G A117C has a self-cleavage of 0.26.
In the case of G25A U87C, the self-cleavage is reported as 0.22.
With U45C A140U the self-cleavage was 1.05.
Variant A69G A117G has a self-cleavage of 0.5.
Work on G4A A136U yielded a self-cleavage of 1.51.
Variant A67G A129G has a self-cleavage of 0.45.
For G49A U134A, the self-cleavage was 1.05.
Work on C63U C123U yielded a self-cleavage of 0.38.
C38U A92G gave a self-cleavage of 0.05.
Variant A6G A94G has a self-cleavage of 0.31.
In the case of A6G A94U, the self-cleavage is reported as 0.3.
In the case of C131U A141G, the self-cleavage is reported as 1.51.
With U73G A141G the self-cleavage was 1.81.
A59G U109A showed a self-cleavage of 0.09.
With U109C U119A the self-cleavage was 0.7.
For U109C U119C, the self-cleavage was 1.61.
With U5C U96C the self-cleavage was 0.26.
U9C C128U gave a self-cleavage of 1.52.
In the case of A50U U91A, the self-cleavage is reported as 0.34.
With U12G A129C the self-cleavage was 1.1.
U5A A79U gave a self-cleavage of 0.77.
Variant U13C U47C has a self-cleavage of 1.56.
With G33U A129G the self-cleavage was 1.34.
Variant U96C U100A has a self-cleavage of 0.08.
Variant G10A A138G has a self-cleavage of 1.2.
For U109A A117U, the self-cleavage was 1.51.
In the case of U104A C118U, the self-cleavage is reported as 0.84.
Variant G41A A78G has a self-cleavage of 0.58.
In the case of U1C C133U, the self-cleavage is reported as 1.16.
Variant G27U C84A has a self-cleavage of 0.1.
In the case of U102A U130C, the self-cleavage is reported as 1.89.
For A50G G82A, the self-cleavage was 1.04.
A57C G72U gave a self-cleavage of 0.03.
In the case of U20C U62G, the self-cleavage is reported as 0.03.
With G54U A136G the self-cleavage was 1.
With G32C U109A the self-cleavage was 1.56.
For A78G U104A, the self-cleavage was 1.25.
For U14A C103U, the self-cleavage was 0.99.
Work on A43G G97A yielded a self-cleavage of 0.04.
Work on U12G C120A yielded a self-cleavage of 1.49.
For A22C U46A, the self-cleavage was 2.21.
For U47G A79U, the self-cleavage was 2.35.
Variant A69U A78G has a self-cleavage of 0.04.
In the case of C3A A121U, the self-cleavage is reported as 0.58.
U13A U91C showed a self-cleavage of 0.89.
For G27A A59G, the self-cleavage was 0.13.
Work on A50G G80A yielded a self-cleavage of 1.79.
U26A U100C showed a self-cleavage of 1.07.
With U81C G86U the self-cleavage was 0.13.
Variant A94U C116U has a self-cleavage of 0.33.
Variant C56A U104C has a self-cleavage of 0.1.
Variant U52C U85C has a self-cleavage of 0.31.
A22G U87A showed a self-cleavage of 0.22.
A94U A136U showed a self-cleavage of 0.29.
A30G C146U showed a self-cleavage of 0.92.
Work on A69G A129U yielded a self-cleavage of 0.58.
With A6U U13C the self-cleavage was 1.25.
A24U gave a self-cleavage of 1.25.
Variant A107G G135A has a self-cleavage of 1.64.
In the case of U12A A77G, the self-cleavage is reported as 1.88.
With U85C U119C the self-cleavage was 0.28.
With A30G A136G the self-cleavage was 1.23.
For U39G U102C, the self-cleavage was 1.34.
U1G U100C showed a self-cleavage of 1.1.
With A69G G86A the self-cleavage was 0.03.
Variant U45C G82A has a self-cleavage of 1.86.
In the case of U91C G106A, the self-cleavage is reported as 0.95.

From the RNAGym collection of RNA variant scans (doi:10.7554/elife.90254)
